The target of assay [1] is Rap55, T^2-ELISA construct, cell-free expressed from PCR product with N-terminal VSV-G and C-terminal HSV epitope tags (UniProt Q8ND56). Kind of assay: dual-reporter T^2-ELISA, against the single-reporter HRP control.
For assay [2] the target is unchanged.

“And” between values parts separate entries of the source, which are not always exact repeats. Equal entries are not always repeated.

Sequence of UniProt Q8ND56 (Q8ND56 1-463, tags or fused parts left off): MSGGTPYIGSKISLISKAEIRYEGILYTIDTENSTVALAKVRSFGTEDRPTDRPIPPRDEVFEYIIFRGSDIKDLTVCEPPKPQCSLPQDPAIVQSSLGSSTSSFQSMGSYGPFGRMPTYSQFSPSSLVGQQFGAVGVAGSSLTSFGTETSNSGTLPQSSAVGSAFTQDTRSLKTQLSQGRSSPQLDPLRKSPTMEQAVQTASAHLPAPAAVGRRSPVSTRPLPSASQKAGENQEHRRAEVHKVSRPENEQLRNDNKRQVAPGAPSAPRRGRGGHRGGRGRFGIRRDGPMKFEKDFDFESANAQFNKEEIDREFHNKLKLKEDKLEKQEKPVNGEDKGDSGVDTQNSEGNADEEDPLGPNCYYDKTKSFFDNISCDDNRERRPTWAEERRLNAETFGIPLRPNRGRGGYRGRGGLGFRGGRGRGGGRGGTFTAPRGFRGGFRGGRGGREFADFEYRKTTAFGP

Substance “anti-VSV-G horseradish peroxidase (HRP) labeled monoclonal antibody (Clone P5D4, Roche Applied Science)” yielded a Percent of Control (HRP detection, VSV-G tag) in assay [1] of 96.5%. Also, in assay [2], the Signal to Noise is 698 and 760.

The values above are taken from patent US8852956.
